{"source": "patent US20260374812", "about": "(published 2026)", "key": {"TTR40-49": {"target": "T1, TTR40-49 (human)", "T1 chain": "TWEPFASGKT", "test": "ELISA"}, "Biotin.TTR40-49": {"target": "T2, Biotin.TTR40-49 (human, not fully specified (N-terminus))", "T2 chain": "TWEPFASGKT", "test": "ELISA"}, "TTR34-54cyc [1]": {"target": "T3, TTR34-54cyc (human, cyclic, disulfide between the two Cys in the poly-Gly linkers)", "T3 sequence (chain, as listed by the source)": "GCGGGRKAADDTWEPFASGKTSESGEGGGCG", "test": "ELISA, ELISA-2"}, "TTR34-54cyc [2]": {"target": "T3, TTR34-54cyc", "test": "ELISA, ELISA-1"}, "mis.WT-TTR [3]": {"target": "mis.WT-TTR (human)", "test": "ELISA, ELISA-2"}, "mis.WT-TTR [4]": {"target": "mis.WT-TTR (human)", "test": "ELISA, ELISA-1"}}, "note": "Where no end group is shown, it is not given here."}
{"binder": "NI-301.37F1 (antibody, V domains shown) VH: QVQLQESGPGLVKPSETLSLTCSVSGGSIISRSSYWGWIRQPPGKGLEWIGGIYHSGNTYDNPSLKSRLTMSVDTSKNQFSLNLRSVTAADTAVYYCARIVPGGDAFDIWGQGTMVTVSS VL: DIQMTQSPSSLSASVGDRVTIACRASQSVGTYLNWYQQKRGKAPKLLIFAASSLQSGVPSRFSGSGSGTDFTLTISSLQPEDFATYYCQQSYSSPPTFGQGTKVEIK", "values": [{"measurement": "binding result", "setting": "TTR40-49", "value": "no binding"}, {"measurement": "binding result", "setting": "Biotin.TTR40-49", "value": "no binding"}, {"measurement": "EC50", "setting": "TTR34-54cyc [1]", "value": 0.66, "unit": "nM"}, {"measurement": "EC50", "setting": "TTR34-54cyc [2]", "value": 0.027, "unit": "nM"}]}
{"binder": "NI-301.37F1 (antibody, V domains shown, plasma-purified wild-type TTR, misfolded/aggregated at pH 3.0) VH: QVQLQESGPGLVKPSETLSLTCSVSGGSIISRSSYWGWIRQPPGKGLEWIGGIYHSGNTYDNPSLKSRLTMSVDTSKNQFSLNLRSVTAADTAVYYCARIVPGGDAFDIWGQGTMVTVSS VL: DIQMTQSPSSLSASVGDRVTIACRASQSVGTYLNWYQQKRGKAPKLLIFAASSLQSGVPSRFSGSGSGTDFTLTISSLQPEDFATYYCQQSYSSPPTFGQGTKVEIK", "values": [{"measurement": "EC50", "setting": "mis.WT-TTR [3]", "value": 8.3, "unit": "nM"}, {"measurement": "EC50", "setting": "mis.WT-TTR [4]", "value": 0.338, "unit": "nM"}]}
